In patent publication US20200148741A1:

Legend:
[1] = molecular target: T1, recombinant toxic shock syndrome toxin-1 (TSST-1), mature protein with N-terminal His6-tag (Staphylococcus aureus), P06886
T1 chain: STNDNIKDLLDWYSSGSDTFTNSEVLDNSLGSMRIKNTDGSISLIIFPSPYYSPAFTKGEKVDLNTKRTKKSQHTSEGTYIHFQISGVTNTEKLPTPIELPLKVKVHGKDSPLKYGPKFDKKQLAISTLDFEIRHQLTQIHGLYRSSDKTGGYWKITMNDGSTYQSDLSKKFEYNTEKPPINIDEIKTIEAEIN

[2] = molecular target: T2, recombinant staphylococcal enterotoxin B (SEB), mature protein with N-terminal His6-tag (Staphylococcus aureus COL), P01552
T2 chain: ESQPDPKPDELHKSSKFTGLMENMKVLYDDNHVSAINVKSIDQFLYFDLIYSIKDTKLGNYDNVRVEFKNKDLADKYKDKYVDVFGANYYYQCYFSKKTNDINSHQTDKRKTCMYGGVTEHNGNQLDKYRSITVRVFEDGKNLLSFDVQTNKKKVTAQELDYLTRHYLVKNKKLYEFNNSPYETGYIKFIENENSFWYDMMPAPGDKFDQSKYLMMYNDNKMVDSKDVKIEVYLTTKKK

B1: pB2-6, immobilized for Surface Plasmon Resonance (peptide)
peptide: DSDSWTLR
modifications: not checked
Kd [1]: 1.2 µM | koff [1]: 0.00304 s⁻¹ | kon [1]: 2530 M⁻¹ s⁻¹ | Kd [2]: 3.9 µM | koff [2]: 0.0019 s⁻¹ | kon [2]: 491 M⁻¹ s⁻¹
